Key:
Assay in all cases: ELISA, receptor coated at 2 ug/ml, streptavidin-HRP, A405
[1] = target: T1, rhIL-17RA-Fc (human, UniProt Q96F46 33-320)
T1 construct: Bought from R&D Systems, catalog 177-IR; also called human IL-17RA; IL-17A receptor; not shown: Fc portion, not described
T1 sequence (looked up): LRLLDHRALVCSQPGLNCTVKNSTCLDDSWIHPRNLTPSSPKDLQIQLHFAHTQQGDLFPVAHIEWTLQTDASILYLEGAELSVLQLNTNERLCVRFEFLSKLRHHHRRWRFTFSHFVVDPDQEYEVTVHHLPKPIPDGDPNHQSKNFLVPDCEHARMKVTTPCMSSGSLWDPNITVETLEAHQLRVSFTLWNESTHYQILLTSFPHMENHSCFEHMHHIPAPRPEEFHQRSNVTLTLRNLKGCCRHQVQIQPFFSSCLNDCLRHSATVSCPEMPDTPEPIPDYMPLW
Procedure: (§1) In brief, ELISA plates were coated with IL-17R-family members; IL-17RA, IL-17BR, IL-17RC or IL-17RD, or IL-13Rα control, at 2 μg/ml, incubated overnight at 4° C., washed in PBS/0.05% tween and blocked in PBS/10% FCS at room temperature for 4 hrs. Biotinylated D9.2 binding was detected using streptavidin-HRP and ELISA development solution and measuring absorbance at 405 nm.
(§2) ELISA plates were coated with IL-17R-family members; IL-17RA, IL-17BR, IL-17RC, or IL-17RD, or IL-13Rα control (R&D Systems) at 2 μg/ml overnight at 4° C. before washing in PBS/0.05% tween and blocking in PBS/10% FCS at room temperature for 4 hrs. Biotinylated D9.2 was added at 1 μg/ml in PBS/10% FCS and incubated overnight at 4° C. Plates were then washed before streptavidin-HRP was added and incubated for 1 hr at room temperature. Plates were then washed a final time before adding ELISA development solution and measuring the absorbance at 405 nm.

[2] = target: T2, rmIL-17RA-Fc (mouse, UniProt Q60943 32-322)
T2 construct: Bought from R&D Systems, catalog 4481-MR; also called mouse IL-17RA; IL-17A receptor; not shown: Fc portion, not described
T2 sequence (looked up): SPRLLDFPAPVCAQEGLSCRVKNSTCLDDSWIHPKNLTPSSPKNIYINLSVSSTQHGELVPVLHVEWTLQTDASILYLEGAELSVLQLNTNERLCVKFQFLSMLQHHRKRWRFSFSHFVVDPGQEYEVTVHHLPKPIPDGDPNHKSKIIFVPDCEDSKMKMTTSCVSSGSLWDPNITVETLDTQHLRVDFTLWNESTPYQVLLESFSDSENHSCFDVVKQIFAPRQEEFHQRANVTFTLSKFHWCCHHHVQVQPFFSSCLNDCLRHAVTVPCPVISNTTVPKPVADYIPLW
Procedure: as §1, §2

[3] = target: T3, rhIL-17RC (human, UniProt Q8NAC3-2 21-467, limits assumed)
T3 construct: Bought from R&D Systems, catalog 2269-IL; also called human IL-17RC; IL-17C receptor
T3 sequence (looked up): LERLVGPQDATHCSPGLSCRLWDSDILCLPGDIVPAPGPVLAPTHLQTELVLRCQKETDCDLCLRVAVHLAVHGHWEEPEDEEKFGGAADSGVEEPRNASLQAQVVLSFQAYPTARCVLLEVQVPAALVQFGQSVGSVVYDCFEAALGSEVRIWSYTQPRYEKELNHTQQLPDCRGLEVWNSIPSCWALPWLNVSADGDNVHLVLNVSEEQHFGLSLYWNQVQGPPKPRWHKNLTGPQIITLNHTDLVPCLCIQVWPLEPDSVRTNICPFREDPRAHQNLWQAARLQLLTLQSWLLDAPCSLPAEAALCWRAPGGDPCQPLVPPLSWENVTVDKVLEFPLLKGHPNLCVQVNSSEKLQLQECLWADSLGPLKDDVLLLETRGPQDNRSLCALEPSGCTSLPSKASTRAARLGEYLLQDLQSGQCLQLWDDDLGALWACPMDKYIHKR
Procedure: as §1, §2

[4] = target: T4, rmIL-17RD (Sef) (mouse, UniProt Q8JZL1 27-299, limits assumed)
T4 construct: Bought from R&D Systems, catalog 2276-ML; also called mouse IL-17RD; IL-17D receptor
T4 sequence (looked up): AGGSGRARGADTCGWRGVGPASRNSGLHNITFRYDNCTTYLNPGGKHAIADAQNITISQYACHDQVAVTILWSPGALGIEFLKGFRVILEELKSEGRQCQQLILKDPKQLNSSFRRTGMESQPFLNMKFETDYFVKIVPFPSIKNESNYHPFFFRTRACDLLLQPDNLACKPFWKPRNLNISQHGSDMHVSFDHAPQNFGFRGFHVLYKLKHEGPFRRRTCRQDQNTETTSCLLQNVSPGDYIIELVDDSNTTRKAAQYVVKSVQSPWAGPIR
Procedure: as §1, §2

[5] = target: T5, rmIL-17RC (mouse, UniProt Q8K4C2 22-464, limits assumed)
T5 construct: Bought from R&D Systems, catalog 2270-ML; also called mouse IL-17RC; IL-17C receptor
T5 sequence (looked up): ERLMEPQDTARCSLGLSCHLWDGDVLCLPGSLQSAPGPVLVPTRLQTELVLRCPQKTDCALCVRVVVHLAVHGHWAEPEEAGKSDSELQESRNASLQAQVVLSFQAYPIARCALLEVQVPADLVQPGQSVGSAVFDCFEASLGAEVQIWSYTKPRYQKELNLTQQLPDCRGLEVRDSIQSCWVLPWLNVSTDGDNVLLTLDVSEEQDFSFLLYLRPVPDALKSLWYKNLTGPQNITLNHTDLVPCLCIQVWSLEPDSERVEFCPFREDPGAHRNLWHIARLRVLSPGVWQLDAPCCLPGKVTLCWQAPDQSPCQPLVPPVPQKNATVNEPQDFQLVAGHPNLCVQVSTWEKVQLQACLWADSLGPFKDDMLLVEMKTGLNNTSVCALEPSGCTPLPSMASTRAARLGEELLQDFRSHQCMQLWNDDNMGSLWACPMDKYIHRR
Procedure: as §1, §2

[6] = target: T6, rhIL-17RD (Sef) (human, UniProt Q8NFM7 27-299, limits assumed)
T6 construct: Bought from R&D Systems, catalog 2275-IL; also called human IL-17RD; IL-17D receptor
T6 sequence (looked up): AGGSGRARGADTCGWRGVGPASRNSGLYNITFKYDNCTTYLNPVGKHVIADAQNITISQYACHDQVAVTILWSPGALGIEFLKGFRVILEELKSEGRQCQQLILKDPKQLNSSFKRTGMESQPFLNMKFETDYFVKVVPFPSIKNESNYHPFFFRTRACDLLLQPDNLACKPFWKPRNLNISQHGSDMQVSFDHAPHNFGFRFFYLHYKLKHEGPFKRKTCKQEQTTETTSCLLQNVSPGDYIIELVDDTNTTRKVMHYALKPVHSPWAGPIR
Procedure: as §1, §2

B1: anti-IL-17BR clone D9.2 (antibody, V domains shown)
VH: QVQLQQPGAELVRPGASVKLSCKTSGYTFISYWMNWVKQGGPEQGLEWIGRIDPYDSEIQYNQKFKDKAILTVDKSSSAAYMQLISLTSEDSAVYYCARSGGFDWFAYWGQGTLVTVS
VL: DIQMTQSPASLSVSVGETVTITCRASENINSNLAWYQQKKGKSPQLLVYDVTNLADGVPSRFSGSGSGTQYSLKINSLQSEDFGSYYCQHFWRPPYTFGGGTNLEIK
notes: Mouse monoclonal from a hybridoma; heavy chain amplified with an IgG1 constant region primer and light chain with a kappa primer (mouse IgG1 kappa); also called mouse monoclonal antibody D9.2; D9.2 antibody clone
B1: no binding (tested: 1 ug/ml biotinylated D9.2) [1]; no binding (tested: 1 ug/ml biotinylated D9.2) [2]; no binding (tested: 1 ug/ml biotinylated D9.2) [3]. B1: no binding (tested: 1 ug/ml biotinylated D9.2) [4]; no binding (tested: 1 ug/ml biotinylated D9.2) [5]; no binding (tested: 1 ug/ml biotinylated D9.2) [6].

Source: patent US20120020985A1 (MEDICAL RESEARCH COUNCIL, published 2012)
